From publication PMC5835670

Target: SbSTOP1d-NT (N-terminal fragment of SbSTOP1d, 1-275 aa, truncated before the zinc finger domain) fused to the GAL4 DNA-binding domain (Sorghum bicolor (sweet sorghum))
Assay: two-hybrid; β-galactosidase assay in yeast strain Y190 with CPRG as substrate, Miller units; BD-SbSTOP1d-NT bait, AD fusion prey

β-galactosidase activity, fold of the control (times that of the control) | Substance
80 | SbSTOP1b fused to the GAL4 activation domain (natural protein)
450 | SbSTOP1d fused to the GAL4 activation domain (natural protein)
